Reference: PMC2861366
Each block holds one substance with its values, some of them ahead of it.

Tests used:
Test in all cases: ITC
[1] = molecular target: P15, SSB C-terminal 15-mer peptide (UniProt P0AGE0)
[2] = molecular target: P9, SSB C-terminal 9-mer peptide (UniProt P0AGE0)
[3] = molecular target: SSB tetramer-(dT)70 1:1 complex (fully wrapped (SSB)65-like) (UniProt P0AGE0)
[4] = molecular target: SSB tetramer-(dT)70 1:1 complex (fully wrapped (SSB)65-like) (UniProt P0AGE0); conditions: pH 8.1, 25 °C, 20 mM NaCl, buffer H: 10 mM Hepes
[5] = molecular target: SSB (single-stranded DNA binding protein), full length (UniProt P0AGE0); conditions: pH 7.0, 25 °C, 0.2 M NaCl, buffer C: 10 mM cacodylate
[6] = pH 7.0, 25 °C, 20 mM NaCl, buffer C: 10 mM cacodylate, pH 7.0
[7] = pH 7.0, 25 °C, 200 mM NaCl, buffer C: 10 mM cacodylate, pH 7.0
[8] = pH 7.5, 25 °C, 20 mM NaCl, buffer T: 10 mM Tris, pH 7.5
[9] = pH 7.0, 25 °C, 0.2 M NaCl, buffer C: 10 mM cacodylate
[10] = pH 7.5, 25 °C, 0.2 M NaCl, buffer T: 10 mM Tris
[11] = pH 7.5, 25 °C, 20 mM NaCl, buffer T: 10 mM Tris

SSB tetramer-(dT)70 1:1 complex (fully wrapped (SSB)65-like), sequence (P0AGE0 whole entry, one chain of several): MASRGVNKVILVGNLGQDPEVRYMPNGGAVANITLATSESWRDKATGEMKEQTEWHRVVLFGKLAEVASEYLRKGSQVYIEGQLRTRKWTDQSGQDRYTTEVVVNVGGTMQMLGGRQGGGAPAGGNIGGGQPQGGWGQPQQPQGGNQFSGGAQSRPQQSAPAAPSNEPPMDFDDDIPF
P9, SSB C-terminal 9-mer peptide, sequence (P0AGE0 whole entry, looked up, tested part not stated): as the sequence (P0AGE0 whole entry, one chain of several) above
SSB (single-stranded DNA binding protein), full length, sequence (P0AGE0 whole entry): as the sequence (P0AGE0 whole entry, one chain of several) above

protons absorbed on complex formation ([1]; pH 7.0-7.5, 25 °C, 20 mM NaCl, buffer T: 10 mM Tris, pH 7.5): 1 protons
K (observed association constant) [1, 6]: 2.7e+06 M⁻¹
ΔH (observed) [1, 6]: -20.7 kcal/mol
K (observed association constant) [1, 7]: 360000 M⁻¹
K (observed association constant) [1, 8]: 1.6e+06 M⁻¹
ΔH (observed) [1, 8]: -7 kcal/mol
K (observed association constant) [2, 7]: 180000 M⁻¹
K (observed association constant) [2, 8]: 2e+06 M⁻¹
ΔH (observed) [2, 8]: -6.7 kcal/mol
Kobs [3, 9]: (3.7±0.5)×10^6 M^−1
ΔHobs [3, 9]: -18.3 kcal/mol
Kobs [3, 10]: (1.9±0.5)×10^6 M^−1
ΔHobs [3, 10]: -8.6 kcal/mol
Substance: PriA helicase (primosomal protein N')

Kobs [4]: (3.8±0.4)×10^6 M^−1
K (observed association constant) [1, 6]: 1.5e+06 M⁻¹
ΔH (observed) [1, 6]: -9.5 kcal/mol
ΔH (observed) [1, 11]: -7.7 kcal/mol
K (observed association constant) [1, 8]: 800000 M⁻¹
K (observed association constant) [2, 6]: 1.6e+06 M⁻¹
ΔH (observed) [2, 6]: -7.9 kcal/mol
ΔH (observed) [2, 11]: -8.2 kcal/mol
K (observed association constant) [2, 8]: 800000 M⁻¹
Kobs [5]: (3.0±0.7)×10^5 M^−1
Kobs [3, 9]: (5.4±1.0)×10^5 M^−1
Kobs [3, 6]: (7.6±1.6)×10^6 M^−1
ΔHobs [3, 6]: -8.7 kcal/mol
Kobs ([3]; pH 8.1, 25 °C, 20 mM NaCl, buffer H: 10 mM Hepes): (5.5±0.8)×10^6 M^−1
ΔHobs ([3]; pH 8.1, 25 °C, 20 mM NaCl, buffer H: 10 mM Hepes, pH 8.1): -8.9 kcal/mol
Substance: χ (chi) subunit of DNA polymerase III holoenzyme (HolC)
